{"source": "the supplement of paper PMC7125110", "parents": {"B1": {"name": "glmS ribozyme (parent)", "chain": "AUAAAAGCGCCAGAACUACAGAAAUGUAGUUGACGAGGAGGAGGUUUAUCGAAUUUUCGGCGGAUGCCUCCAAA"}}, "note": "± gives the standard error. This sample holds only a part of the variants without activity."}
{"variants_of": "B1", "assay": "self-cleavage kobs at 10000 uM GlcN6P; higher = faster cleavage; RNA array", "details": "with glucosamine-6-phosphate", "method_in_brief": "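Glucosamine-6-phosphate (40 μM to 10 mM) in HEPES/KCl/Mg(OAc)2 buffer was flowed over sequenced MiSeq chips, and tiles were imaged over ~14 h. Barcoded ribozyme variants there had been transcribed in situ by E. coli RNA polymerase and were tracked through a hybridised Cy3 probe at 37 °C. One- or two-exponential decay fits to per-tile medians, normalised to baseline and to non-cleaving reference variants, gave kobs. kcat and KM came from weighted Michaelis–Menten fits across concentrations.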", "units": {"self-cleavage kobs at 10000 uM GlcN6P": "s⁻¹"}}
{"variant": "G51U U54C G66U", "self-cleavage kobs at 10000 uM GlcN6P": "< 1e-05"}
{"variant": "U30G G62A C67A", "self-cleavage kobs at 10000 uM GlcN6P": "< 1e-05"}
{"variant": "C34U G43U U57G U65G", "self-cleavage kobs at 10000 uM GlcN6P": "< 1e-05"}
{"variant": "U30G U45A C71G", "self-cleavage kobs at 10000 uM GlcN6P": "0.000315 ± 5.9e-05"}
{"variant": "U30G A36G G40U C68A", "self-cleavage kobs at 10000 uM GlcN6P": "< 1e-05"}
{"variant": "G29A C67U C70U", "self-cleavage kobs at 10000 uM GlcN6P": "6.18e-05 ± 1.1e-05"}
{"variant": "U54G C67U C68U", "self-cleavage kobs at 10000 uM GlcN6P": "0.000147 ± 2.9e-05"}
{"variant": "A39C U55G C70U", "self-cleavage kobs at 10000 uM GlcN6P": "0.000211 ± 4e-05"}
{"variant": "A39U A42G U46C", "self-cleavage kobs at 10000 uM GlcN6P": "0.00379 ± 0.00069"}
{"variant": "A39U U55C U65C", "self-cleavage kobs at 10000 uM GlcN6P": "0.00435 ± 0.00052"}
{"variant": "G29A C58U C70U", "self-cleavage kobs at 10000 uM GlcN6P": "5.99e-05 ± 1.7e-05"}
{"variant": "A39G U45G C70A", "self-cleavage kobs at 10000 uM GlcN6P": "0.000127 ± 4.2e-05"}
{"variant": "U45G U46C U54G", "self-cleavage kobs at 10000 uM GlcN6P": "0.00762 ± 0.0023"}
{"variant": "A64U G66C", "self-cleavage kobs at 10000 uM GlcN6P": "4.03e-05 ± 1.2e-05"}
{"variant": "A39G U57A C68U", "self-cleavage kobs at 10000 uM GlcN6P": "0.000176 ± 4e-05"}
{"variant": "G44C C50U U56A", "self-cleavage kobs at 10000 uM GlcN6P": "< 1e-05"}
{"variant": "G43A C50A A64U", "self-cleavage kobs at 10000 uM GlcN6P": "< 1e-05"}
{"variant": "G37C A64C C67G", "self-cleavage kobs at 10000 uM GlcN6P": "< 1e-05"}
{"variant": "U30G A33G C71G", "self-cleavage kobs at 10000 uM GlcN6P": "< 1e-05"}
{"variant": "A53C U69C", "self-cleavage kobs at 10000 uM GlcN6P": "0.00127 ± 0.00031"}
{"variant": "A42G C58G U69C", "self-cleavage kobs at 10000 uM GlcN6P": "0.000133 ± 3.8e-05"}
{"variant": "C34G G35U G38A C50A U69G", "self-cleavage kobs at 10000 uM GlcN6P": "0.000375 ± 5.4e-05"}
{"variant": "G59A C68A U69A", "self-cleavage kobs at 10000 uM GlcN6P": "< 1e-05"}
{"variant": "U31C U47C C70U", "self-cleavage kobs at 10000 uM GlcN6P": "0.000673 ± 0.00014"}
{"variant": "G32U U57A C68G", "self-cleavage kobs at 10000 uM GlcN6P": "6.42e-05 ± 2.1e-05"}
{"variant": "G37C U45A U54C G63C", "self-cleavage kobs at 10000 uM GlcN6P": "< 1e-05"}
{"variant": "A33C G35C U47A", "self-cleavage kobs at 10000 uM GlcN6P": "< 1e-05"}
{"variant": "G32A A64U C68U", "self-cleavage kobs at 10000 uM GlcN6P": "< 1e-05"}
{"variant": "U49A C70A", "self-cleavage kobs at 10000 uM GlcN6P": "< 1e-05"}
{"variant": "G35A U54G G62C", "self-cleavage kobs at 10000 uM GlcN6P": "< 1e-05"}
{"variant": "U30C G40A A53C C58U", "self-cleavage kobs at 10000 uM GlcN6P": "< 1e-05"}
{"variant": "U55G G59U", "self-cleavage kobs at 10000 uM GlcN6P": "4.4e-05 ± 1.1e-05"}
{"variant": "G35A G38U A53C C70U", "self-cleavage kobs at 10000 uM GlcN6P": "< 1e-05"}
{"variant": "A52U U55C U65C C68G U69A", "self-cleavage kobs at 10000 uM GlcN6P": "< 1e-05"}
{"variant": "A39G U54A G62U G66A", "self-cleavage kobs at 10000 uM GlcN6P": "< 1e-05"}
{"variant": "U30G U55G C70G", "self-cleavage kobs at 10000 uM GlcN6P": "4.53e-05 ± 1.9e-05"}
{"variant": "G43A A52C C58A G66U C67G U69G", "self-cleavage kobs at 10000 uM GlcN6P": "< 1e-05"}
{"variant": "U57C C58A C70U", "self-cleavage kobs at 10000 uM GlcN6P": "3.37e-05 ± 1.7e-05"}
{"variant": "A36C U46A C58A", "self-cleavage kobs at 10000 uM GlcN6P": "< 1e-05"}
{"variant": "A36C G38C A64C", "self-cleavage kobs at 10000 uM GlcN6P": "< 1e-05"}
{"variant": "C34A G35C A48U", "self-cleavage kobs at 10000 uM GlcN6P": "< 1e-05"}
{"variant": "U31G U56C C58U", "self-cleavage kobs at 10000 uM GlcN6P": "6.36e-05 ± 1.2e-05"}
{"variant": "G29C U46G A64U", "self-cleavage kobs at 10000 uM GlcN6P": "< 1e-05"}
{"variant": "G38U A53U U69G", "self-cleavage kobs at 10000 uM GlcN6P": "0.000134 ± 3.5e-05"}
{"variant": "A64G U69C", "self-cleavage kobs at 10000 uM GlcN6P": "0.000688 ± 0.00018"}
{"variant": "U30G U49A C68A", "self-cleavage kobs at 10000 uM GlcN6P": "< 1e-05"}
{"variant": "U31A G51U C68A", "self-cleavage kobs at 10000 uM GlcN6P": "< 1e-05"}
{"variant": "C50G G60A C71G", "self-cleavage kobs at 10000 uM GlcN6P": "0.000124 ± 3.5e-05"}
{"variant": "U55G C61A", "self-cleavage kobs at 10000 uM GlcN6P": "< 1e-05"}
{"variant": "A33G G35U A39G A53U G62C", "self-cleavage kobs at 10000 uM GlcN6P": "< 1e-05"}
{"variant": "G32C G35A G60A", "self-cleavage kobs at 10000 uM GlcN6P": "< 1e-05"}
{"variant": "U30A U31C A53G", "self-cleavage kobs at 10000 uM GlcN6P": "0.00407 ± 0.0007"}
{"variant": "G32U A39G U69A", "self-cleavage kobs at 10000 uM GlcN6P": "0.000121 ± 3.2e-05"}
{"variant": "G32A A33U G37U", "self-cleavage kobs at 10000 uM GlcN6P": "< 1e-05"}
{"variant": "G29U U46A U54C", "self-cleavage kobs at 10000 uM GlcN6P": "7.78e-05 ± 2e-05"}
{"variant": "G35C G51U G62U", "self-cleavage kobs at 10000 uM GlcN6P": "< 1e-05"}
{"variant": "G59U G62A A64G", "self-cleavage kobs at 10000 uM GlcN6P": "< 1e-05"}
{"variant": "A42G U45A U65C", "self-cleavage kobs at 10000 uM GlcN6P": "0.00105 ± 0.00028"}
{"variant": "C58U G59C C61G G62C A64G U65A G66U", "self-cleavage kobs at 10000 uM GlcN6P": "< 1e-05"}
